The test addresses Drosophila Deltex WWE2 domain (residues 26-261; Dx1A*) (Drosophila) (UniProt Q23985). As to the kind of experiment: AUC.
Sequence of UniProt Q23985 (Q23985 26-261): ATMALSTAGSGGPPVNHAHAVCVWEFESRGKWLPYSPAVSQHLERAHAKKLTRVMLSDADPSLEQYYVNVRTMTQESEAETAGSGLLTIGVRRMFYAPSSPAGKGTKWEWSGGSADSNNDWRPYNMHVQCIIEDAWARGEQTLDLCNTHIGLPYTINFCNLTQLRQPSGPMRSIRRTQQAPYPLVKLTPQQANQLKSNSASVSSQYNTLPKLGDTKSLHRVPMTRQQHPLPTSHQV

With “Drosophila Notch ANK domain (Nank1-7*) R2007A (from UniProt P07207 1901-2048) (domain or fragment)”, the weight-averaged sedimentation coefficient (sw) of a 45 μM 1:1 mixture came to 3.51e-13 s.

The values above are taken from article PMC10338078.
